The source of these data is patent US6759384 (AVENTIS PHARMACEUTICALS, dated 2004).

Starred links: 1 amine or outer side, 2 acyl side, 3 side chain; linkers in the order of their positions; H or OH if unused. Positions of bridges follow the written chain, without caps; N, C: chain ends. Non-standard residues stand in square brackets, D forms with d. Primed or numbered codes have the meaning given here. No end group written: not given here. *: point of attachment. Dab(Nγ-C3H7N)″ = 2,4-diaminobutyric acid with dimethylamidinium (N,N-dimethylformamidinium) on gamma-N, C[N+](C)=CNCC[C@H](N[*:1])C(=O)[*:2]; Dab(Nγ-C3H7N) = Dab bearing Nγ-dimethylamidinium (C3H7N), C[N+](C)=CNCC[C@H](N[*:1])C(=O)[*:2]; (iBu)Tyr = N-isobutyl-L-tyrosine, CC(C)CN([C@@H](Cc1ccc(O[*:3])cc1)C(=O)[*:2])[*:1]; Tyr(Me)″ = O-methyl-tyrosine (source: Y(Me)), COc1ccc(C[C@H](N[*:1])C(=O)[*:2])cc1; Thr(Me) = O-methyl-threonine (source: T(Me)), CO[C@H](C)[C@H](N[*:1])C(=O)[*:2]; Cys(Me) = S-methylcysteine (source: C(Me)), CSC[C@H](N[*:1])C(=O)[*:2]; Pen(Me) = S-methyl-penicillamine, CSC(C)(C)[C@H](N[*:1])C(=O)[*:2]; Tyr(Me) = O-methyltyrosine, COc1ccc(C[C@H](N[*:1])C(=O)[*:2])cc1; Orn(Nδ-C3H7N) = ornithine with dimethylamidinium on delta-N; Phe(4-NO2) = N[C@@H](Cc1ccc([N+](=O)[O-])cc1)C(=O)O; Phe(4-NH2) = Nc1ccc(C[C@H](N)C(=O)O)cc1; 2Nal = N[C@@H](Cc1ccc2ccccc2c1)C(=O)O; NMeY = CN[C@@H](Cc1ccc(O)cc1)C(=O)O; hArg = N=C(N)NCCCC[C@H](N)C(=O)O; Cha = N[C@@H](CC1CCCCC1)C(=O)O; Agb = N=C(N)NCC[C@H](N)C(=O)O; Chg = N[C@H](C(=O)O)C1CCCCC1; Phg = N[C@H](C(=O)O)c1ccccc1; Pth = not defined here; pal = not defined here; Tfa = O=C(C(F)(F)F)*; Isobutyl = CC(C)C*; βAla = NCCC(=O)O; tBu = CC(C)(C)*

B1: Ac-βAla-Y-I-R-L-G-NH2 (peptide)
peptide: Ac-[βAla]YIRLG-NH2
SMILES: CC[C@H](C)[C@H](NC(=O)[C@H](Cc1ccc(O)cc1)NC(=O)CCNC(C)=O)C(=O)N[C@@H](CCCNC(=N)N)C(=O)N[C@@H](CC(C)C)C(=O)NCC(N)=O
B2: Ac-Y(Me)-I-R-L-A-NH2 (peptide)
peptide: Ac-[Tyr(Me)″]IRLA-NH2
SMILES: CC[C@H](C)[C@H](NC(=O)[C@H](Cc1ccc(OC)cc1)NC(C)=O)C(=O)N[C@@H](CCCNC(=N)N)C(=O)N[C@@H](CC(C)C)C(=O)N[C@@H](C)C(N)=O
B3: F(pNO2)-I-R-L-A-NH2 (peptide)
peptide: [Phe(4-NO2)]IRLA-NH2
modifications: N-terminus assumed
SMILES: CC[C@H](C)[C@H](NC(=O)[C@@H](N)Cc1ccc([N+](=O)[O-])cc1)C(=O)N[C@@H](CCCNC(=N)N)C(=O)N[C@@H](CC(C)C)C(=O)N[C@@H](C)C(N)=O
B4: pal-C(SBut)-R-L-P-NH2 (peptide)
peptide: [pal]C(tBu)RLP-NH2
modifications: reading uncertain; also: pyridylalanine ring position not given here, printed as pal-C(SBut)-R—L—P—NH2
B5: Tfa-(Me)Y-I-R-L-A-NH2 (peptide)
peptide: Tfa-[NMeY]IRLA-NH2
SMILES: CC[C@H](C)[C@H](NC(=O)[C@H](Cc1ccc(O)cc1)N(C)C(=O)C(F)(F)F)C(=O)N[C@@H](CCCNC(=N)N)C(=O)N[C@@H](CC(C)C)C(=O)N[C@@H](C)C(N)=O
B6: Nal(2)-I-R-C(Me)-P-NH2 (peptide)
peptide: [2Nal]IR[Cys(Me)]P-NH2
modifications: N-terminus assumed
SMILES: CC[C@H](C)[C@H](NC(=O)[C@@H](N)Cc1ccc2ccccc2c1)C(=O)N[C@@H](CCCNC(=N)N)C(=O)N[C@@H](CSC)C(=O)N1CCC[C@H]1C(N)=O
B7: pal-I-R-C(SBut)-P-NH2 (peptide)
peptide: [pal]IRC(tBu)P-NH2
modifications: reading uncertain; also: pyridylalanine ring position not given here, printed as pal-I-R-C(SBut)-P-NH2
B8: Tyr(Me)-I-R-L-A-NH2 (peptide)
peptide: [Tyr(Me)]IRLA-NH2
modifications: N-terminus assumed
SMILES: CC[C@H](C)[C@H](NC(=O)[C@@H](N)Cc1ccc(OC)cc1)C(=O)N[C@@H](CCCNC(=N)N)C(=O)N[C@@H](CC(C)C)C(=O)N[C@@H](C)C(N)=O
B9: Ac-(Me)Y-I-R-L-A-NH2 (peptide)
peptide: Ac-[NMeY]IRLA-NH2
SMILES: CC[C@H](C)[C@H](NC(=O)[C@H](Cc1ccc(O)cc1)N(C)C(C)=O)C(=O)N[C@@H](CCCNC(=N)N)C(=O)N[C@@H](CC(C)C)C(=O)N[C@@H](C)C(N)=O
B10: F(pNH2)-I-R-L-A-NH2 (peptide)
peptide: [Phe(4-NH2)]IRLA-NH2
modifications: N-terminus assumed
SMILES: CC[C@H](C)[C@H](NC(=O)[C@@H](N)Cc1ccc(N)cc1)C(=O)N[C@@H](CCCNC(=N)N)C(=O)N[C@@H](CC(C)C)C(=O)N[C@@H](C)C(N)=O
B11: Ac-Y-I-Dab(N^γC3H7N)-L-A-NH2 (peptide)
peptide: Ac-YI[Dab(Nγ-C3H7N)]LA-NH2
SMILES: CC[C@H](C)[C@H](NC(=O)[C@H](Cc1ccc(O)cc1)NC(C)=O)C(=O)N[C@@H](CCNC=[N+](C)C)C(=O)N[C@@H](CC(C)C)C(=O)N[C@@H](C)C(N)=O
B12: Ac-Y-I-hR-L-A-NH2 (peptide)
peptide: Ac-YI[hArg]LA-NH2
SMILES: CC[C@H](C)[C@H](NC(=O)[C@H](Cc1ccc(O)cc1)NC(C)=O)C(=O)N[C@@H](CCCCNC(=N)N)C(=O)N[C@@H](CC(C)C)C(=O)N[C@@H](C)C(N)=O
B13: Ac-Y-I-nR-L-A-NH2 (peptide)
peptide: Ac-YI[Agb]LA-NH2
SMILES: CC[C@H](C)[C@H](NC(=O)[C@H](Cc1ccc(O)cc1)NC(C)=O)C(=O)N[C@@H](CCNC(=N)N)C(=O)N[C@@H](CC(C)C)C(=O)N[C@@H](C)C(N)=O
B14: y-I-(nR)-L-A-NH2 (peptide)
peptide: [dY]I[Agb]LA-NH2
modifications: N-terminus assumed
SMILES: CC[C@H](C)[C@H](NC(=O)[C@H](N)Cc1ccc(O)cc1)C(=O)N[C@@H](CCNC(=N)N)C(=O)N[C@@H](CC(C)C)C(=O)N[C@@H](C)C(N)=O
B15: Ac-E-Y-I-R-L-K-NH2** (peptide)
peptide: Ac-EYIRLK-NH2
modifications: lactam 1-6
SMILES: CC[C@H](C)[C@@H]1NC(=O)[C@H](Cc2ccc(O)cc2)NC(=O)[C@@H](NC(C)=O)CCC(=O)NCCCC[C@@H](C(N)=O)NC(=O)[C@H](CC(C)C)NC(=O)[C@H](CCCNC(=N)N)NC1=O
notes: underlining that marks the cyclized portion is lost in the text

human factor Xa (Enzyme Research Laboratories, Inc.), sequence (P00742 41-179 limits assumed, chain 1 of 2): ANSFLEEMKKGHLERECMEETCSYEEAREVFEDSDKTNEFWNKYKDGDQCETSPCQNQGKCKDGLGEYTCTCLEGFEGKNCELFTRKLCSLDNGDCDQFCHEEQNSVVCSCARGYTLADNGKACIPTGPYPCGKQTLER
human factor Xa (Enzyme Research Laboratories, Inc.), sequence (P00742 235-488 limits assumed, chain 2 of 2): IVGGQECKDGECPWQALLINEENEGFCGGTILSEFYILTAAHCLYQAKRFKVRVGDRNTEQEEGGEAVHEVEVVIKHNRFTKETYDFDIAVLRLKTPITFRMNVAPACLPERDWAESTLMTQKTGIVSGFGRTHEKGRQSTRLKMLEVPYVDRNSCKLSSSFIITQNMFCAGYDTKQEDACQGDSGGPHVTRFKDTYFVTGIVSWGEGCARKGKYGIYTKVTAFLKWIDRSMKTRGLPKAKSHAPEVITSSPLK

This experiment has as its target human factor Xa (Enzyme Research Laboratories, Inc.) (human, UniProt P00742 41-179; P00742 235-488, limits assumed). Put plainly: chromogenic FXa inhibition. On the procedure: TBS-P buffer (50 mM Tris-Cl, pH 7.8, 200 mM NaCl, 0.05% (w/v) PEG-8000, 0.02% (w/v) NaN_3) was used for this assay. The IC$50$ was determined by combining in appropriate wells of a Costar half-area microtiter plate 25 μl human factor Xa (Enzyme Research Laboratories, Inc.; South Bend Ind.) in TBS-P; 40 μl 10% (v/v) DMSO in TBS-P (uninhibited control) or various concentrations of a peptide to be tested diluted in 10% (v/v) DMSO in TBS-P; and substrate S-2765 (Nα-benzyloxycarbonyl-D-Arg-Gly-L-Arg-p-nitroanilide; Kabi Pharmacia, Inc.; Franklin Ohio) in TBS-P.
The assays were performed by pre-incubating the peptide inhibitor plus enzyme for 10 min, then the assay was initiated by adding substrate to obtain a final volume of 100 μl. The initial velocity of chromogenic substrate hydrolysis was measured by the change in absorbance at 405 nm using a Bio-tek Instruments kinetic plate reader (Ceres UV900HDi) at 25° C. during the linear portion of the time course (usually 1–5 min after addition of substrate). The concentration of inhibitor that caused a 50% decrease in the rate of substrate hydrolysis was predicted by linear regression after plotting the relative rates of hydrolysis (compared to the uninhibited control) versus the log of the peptide concentration. The enzyme concentration was 0.5 nM and substrate concentration was 140 μM.
With Ac-[(iBu)Tyr]I[Orn(Nδ-C3H7N)]LP-NH2 [Ac-(iBu)Y-I-Orn(N^δ-C3H7N)-L-P-NH2], the Ki is under 100 µM.

For the molecule B1, the Ki was under 100 µM.

The molecule Pth-YIRLP-NH2 (reading uncertain; also: printed as Pth-Y-I-R-L-P-NH2) [Pth-Y-I-R-L-P-NH2] came in with a Ki of under 100 µM.

Ac-[NMeY][Chg]RLP-NH2 [Ac-(Me)Y-Chg-R-L-P-NH2] showed a Ki of under 100 µM.

The molecule YXRLP (N-term Ac; residue 2 = allo-Ile; C-term NH2) [Ac-Y-(allo-I)-R-L-P-NH2] yielded a Ki of under 100 µM.

For Ac-Y[Phg]RLP-NH2 [Ac-Y-Pgl-R-L-P-NH2], the Ki is under 100 µM.

With Ac-Y[Thr(Me)]RLP-NH2 [Ac-Y-T(Me)-R-L-P-NH2], the Ki is under 100 µM.

Ac-Y[Cha]RLP-NH2 [Ac-Y-Cha-R-L-P-NH2] gave a Ki of under 100 µM.

Ac-Y[Pen(Me)]RLP-NH2 [Ac-Y-Pen(Me)-R-L-P-NH2] yielded a Ki of under 100 µM.

Ac-[(iBu)Tyr][Chg]RLP-NH2 [Ac-(iBu)Y-Chg-R-L-P-NH2] returned a Ki of under 100 µM.

Take XIRLP (N-term Ac; Y1=Tyr(3,5-NO2); C-term NH2) [Ac-Tyr(3,5-NO2)-I-R-L-P-NH2]: the Ki was under 100 µM.

With XIRLP (N-term Ac; N-(Me) on Y1; C-term NH2) [Ac-(Me)Y-I-R-L-P-NH2], the Ki is under 100 µM.

Isobutyl-YIRLA-NH2 [(iBu)Y-I-R-L-A-NH2] had an inhibitory constant (Ki) of under 100 µM.

On to B2, for which the Ki is under 100 µM.

With B3, the Ki is under 100 µM.

As to B4, the Ki is under 100 µM.

As for B5, the Ki was under 100 µM.

For the molecule B6, the Ki is under 100 µM.

The molecule B7 came in with a Ki of under 100 µM.

For B8, the Ki was under 100 µM.

In turn, B9 gave a Ki of under 100 µM.

The molecule B10 showed a Ki of under 100 µM.

The molecule Ac-[(iBu)Tyr]I[Dab(Nγ-C3H7N)″]LP-NH2 [Ac-(iBu)Y-I-Dab(N^γ-C3H7N)-L-P-NH2] showed a Ki of under 100 µM.

With B11, the Ki was under 100 µM.

B12 yielded a Ki of under 100 µM.

In turn, B13 yielded a Ki of under 100 µM.

Turning to B14, the Ki is under 100 µM.

XIRLP (N-term Ac; N-(trans-CH3-CH═C(CH3)-CH2) on Y1; C-term NH2) [Ac-(trans-CH3-CH═C(CH3)-CH2)Y-I-R-L-P-NH2] yielded a Ki of under 100 µM.

B15 came in with a Ki of under 100 µM.

The term Ki denotes a dissociation constant, usually derived from enzyme kinetics or from competition with a known ligand. Read a high Ki as lower affinity.
